The text below walks through data of PMC8017925, “Structural basis for differential recognition of phosphohistidine-containing peptides by 1-pHis and 3-pHis monoclonal antibodies” (Proceedings of the National Academy of Sciences of the …, 2021).

The nature of series [1]: Stability of 1- and 3-pHis peptides with and without pHis mAbs (BLI read-out). The conditions noted are these: phosphorylated ACLYana, 0-24 h, no pHis mAbs; read-out BLI signal at end of association, normalized to 0 h. The class given is physicochemical. The protocol:
Next, we examined the ability of these Fabs to recognize phosphorylated substrates using differential scanning fluorimetry (DSF).
Fig. S6. Stability of 1- and 3-pHis peptides in the presence of pHis mAbs. In the BLI experiment, analytes were SC50-3 (A and B) and SC44-8 (C and D) Fabs and ligand was the ACLYana peptide.
Prior to the experiment, the peptide was phosphorylated with phosphoramidate and divided into two sets - set A and set B. The set A peptide was incubated with 1- and 3-pHis mAbs separately for extended periods of time (0 - 24 h) and set B was not incubated with pHis mAbs. The ACLYana-pHis peptide incubated with the mixture of 1-pHis IgGs (A, continuous lines) and 3-pHis IgGs (C, continuous lines) has the higher signal intensity at all time points compared to […]
(discontinuous lines). The BLI signal intensity at the end of association phase was used to compare the rate of hydrolysis with (set A) and without incubation with pHis mAbs (set B). The signal intensities were normalized to the 0 h (B and D). The unphosphorylated peptide was used as a […]
the rate of dephosphorylation. In the absence of pHis mAb incubation, 1-pHis peptide hydrolyzed […]
(1 picture or pasted object on this page, not shown here)

The target in series [2] is ACLY peptide, phosphorylated, 3-pHis form. The series can be described thus: BLI; N-terminally biotinylated peptides (20 nM) on streptavidin biosensors, varying concentrations of Fab in solution; 50 mM Hepes pH 8.0, 150 mM NaCl, 0.05% Tween-20, 0.2% BSA; association 120 s, dissociation 200 s; global fit to a 1:1 Langmuir model; Octet RED96e; in triplicate.
Series [3] has as its target ACLYana-3-pTza peptide (AGAG-3-pTza-AGAG). The series is described as above.
For series [4], the target named is T1, ACLYana-3-pHis peptide (AGAG-3-pHis-AGAG).
T1 sequence (peptide, 3-phosphohistidine at position 5; biotin on the N-terminus): AGAGHAGAG
Described as above.

Substrate in series [5]: SCS peptide, phosphorylated, 3-pHis form
The series is described as above.

Series [6] concerns the target T2, ACLY peptide, 3-pHis form.
T2 sequence (peptide, biotin on the N-terminus; C-terminal amide; 3-phosphohistidine at position 5): VQFGHAGAC
Briefly: BLI; biotinylated pHis peptides (20 nM) on streptavidin biosensors, Fab in solution at varying concentrations; 50 mM Hepes pH 8.0, 150 mM NaCl, 0.05% Tween-20, 0.2% BSA; Octet RED96e; global fit to a 1:1 Langmuir model.

Substrate in series [7]: SCS peptide, 3-pHis form
The description is as above.

*1 amine or outer side, *2 acyl side, *3 side chain or, on linkers, in order; H or OH if unused. Where no end group is shown, it is not given here. [ ]: non-standard residue; d: D form. The star is where a group is joined. 1‑pHis = 1-phosphohistidine, O=C([C@H](Cc1cncn1P(=O)(O)O[*:3])N[*:1])[*:2]; Biotin = O=C1N[C@H]2[C@H](CS[C@H]2CCCCC(=O)*)N1

In the case of “1-pHis peptide: 1-pHis isomer of phosphorylated ACLYana peptide (Biotin-AGAG[1‑pHis]AGAG)”, in series [1], the “hydrolysis of pHis peptide in the absence of pHis mAb incubation” value is recorded as “faster than 3-pHis peptide”.

B1: SC44-8 Fab (Fab, V domains shown)
VH: QSVKESGRGLVQPGGSLTLTCTASGFSIDSYGFSWVRQAPGKGLEHIGYLTAGGRAFYASWAKSRSTITRNTNENTVTLKMTSLTAADTATYFCAKLGSGNPVAIWGPGTLVTVSS
VL: QVLTQTPSFTSAAVGGTVTINCQSSQSVWRNKNLAWYQQKPGQPPKRLIYAIATLDSGVPSRFSGSGSGTQFTLTISDVQCDDAATYYCVGHYGSENDAYYAFGGGTEVVVK
B1: the figures for the BLI signal intensity for the association in series [2], in series [4] and in series [5] were 0.5 nm, 2 nm and 0.5 nm, respectively. In addition, the Kd came to 0.235 nM in series [3], 18.2 nM in series [4], 348 nM in series [6] and 467 nM in series [7]. The koff in series [3] turned out to be 3.66e-05 s⁻¹; in series [4], 0.0017 s⁻¹; in series [6] it was 0.00972 s⁻¹; in series [7], 0.0137 s⁻¹. Further, the kon in series [3] came out at 156000 M⁻¹ s⁻¹; in series [4], 93600 M⁻¹ s⁻¹; in series [6], 28000 M⁻¹ s⁻¹; in series [7], 29300 M⁻¹ s⁻¹.
